One molecule from patent US11998613B2, “Antibody-drug conjugates containing an anti-mesothelin antibody and uses thereof” (DEVELOPMENT CENTER FOR BIOTECHNOLOGY, priority 2020, dated 2024) can be followed below.

The test system of data set [1] is KLM-1 human pancreatic cancer xenograft. In words: KLM-1 xenograft model (Example 43). The format is in vivo, male NOD SCID mice. To be noted: 15 mg/kg IV once weekly for 3 weeks. As for the experimental part:
Each of the formulations was administered intravenously (IV) to the mice once weekly for three weeks.
(§1) Five mice were housed in each cage.
When the average tumor volume had reached about 200 mm^3, the mice were randomly divided into 3 groups (N=6 per group). Each of the vehicle, DCBPR2002-lysine-DBCO-vc-MMAE (15 mg/kg), and DCBPR2002-4(DBCO-vc-MMAE) (15 mg/kg) was intravenously administered once weekly for 3 weeks.
(§2) Differences are considered significant at *P<0.05.

For data set [2], the system named is Pancreatic cancer cell line KLM-1 (MSLN+). In words: In vitro cytotoxicity, CellTiter-Glo luminescent cell viability assay, KLM-1. It counts as cell-based, human. The note with it: KLM-1, 72 hours treatment; read-out: Relative IC50 (nM of toxic payload/ADCs). For orientation: In ATP-based viability assays light output follows the ATP content of the culture.
For data set [3], the system named is OVCAR-3 human ovarian cancer xenograft. Nature of the data set: OVCAR-3 xenograft model (Example 46). The format is in vivo, female NOD SCID mice. The procedure:
as §1
OVCAR-3 cells were subcutaneously (SC) implanted (1×10^7 cells in 1:1 PBS/matrigel mixture at 0.2 mL per mouse) into the right flank of female NOD SCID mice. […] Each of the vehicle, DCBPR2002-4(DBCO-vc-MMAE) (15 and 30 mg/kg), and DCBPR2002-4(DBCO-vc-seco-DUBA) (15 mg/kg) was intravenously administered once weekly for 3 weeks.
as §2

For a further data set, the target named is mesothelin protein (Homo sapiens, UniProt Q13421). Nature of the data set: Binding kinetics of anti-mesothelin ADCs by surface plasma resonance (Biacore T100). The note with it: analyte MSLN. The procedure: The kinetic constant of the anti-mesothelin ADCs interaction against mesothelin was determined by surface plasma resonance (Biacore® T100, Biacore, Inc., Piscataway, NJ). The flow cell of the CM5 wafer was fixed with approximately 10,000 reaction units (RU) of anti-human IgG-Fc (Biacore®) in 10 mM glycine pH 5.0 at 10 μL/min for 600 seconds. 10 μg/mL of anti-mesothelin antibody and anti-mesothelin ADCs diluted in TBS at 10 μl/min were captured on CM5 chips. Four concentrations (from 3.7 to 100 nM) of human mesothelin recombinant protein and zero concentration (flow buffer) in 100 μl/min binding were recorded in PBS containing 1 mM CaCl2 for 3 minutes. The dissociation of the complex was measured for 10 minutes. The water surface was regenerated by injecting 3 M MgCl2 and 3 mM EGTA at 10 μl/min for 60 seconds. The curve obtained after subtracting the reference and buffer signals was taken into the 1:1 Langmuir binding model using the Biacore® T100 evaluation software (Biacore®).
(In general: In SPR one partner is held on a chip, and binding of the other changes the refractive index at the surface.)

The nature of data set [4]: In vivo PK in rats, MSD ECL total and conjugated antibody assays. To be noted: for AUC(0−last) / AUC(0−∞) / C0 / CL / MRT / Vss / t1/2: 5 mg/kg via the tail vein, serum. The source says:
This study used Meso Scale Discovery (MSD) Electrochemiluminescent (ECL) method to conduct the pharmacokinetic analysis of DCBPR2002-4(DBCO-vc-MMAE) in BALB/c mice and rat samples. The MSD assay can measure both conjugated and unconjugated antibodies. As illustrated in this example, or total antibody assay the plate is coated with goat anti-human IgG, which can capture all humanized antibodies (conjugated and unconjugated). For the conjugated antibody assay, the plate is coated with an antibody against the payload (drug), such as anti-MMAE antibody.
The in vivo pharmacokinetic study was designed for the comparison the linker-payload stability of trimannosyl-conjugated and cysteine-conjugated synthesis ADC (Adcetris). The rats were administered DCBPR2002-4(DBCO-vc-MMAE) and Adcetris at a dose level of 5 mg/kg via the tail vein. Serum samples were then obtained at different time points for determination of the concentrations of DCBPR2002-4(DBCO-vc-MMAE) and Adcetris in rats by MESO QuickPlex SQ 120 method. The pharmacokinetic parameters of DCBPR2002-4(DBCO-vc-MMAE) and Adcetris were analyzed by noncompartmental analysis using Phoenix™ for WinNonlin Program, version 6.3.

In general, MRT refers to the average time that molecules of a dose stay in the body. What is called Vss is a proportionality between amount in the body and measured concentration, not a real space. Read a low Vss as little distribution into tissue.

Sequence of mesothelin protein (Q13421 with tags, fused parts or gaps): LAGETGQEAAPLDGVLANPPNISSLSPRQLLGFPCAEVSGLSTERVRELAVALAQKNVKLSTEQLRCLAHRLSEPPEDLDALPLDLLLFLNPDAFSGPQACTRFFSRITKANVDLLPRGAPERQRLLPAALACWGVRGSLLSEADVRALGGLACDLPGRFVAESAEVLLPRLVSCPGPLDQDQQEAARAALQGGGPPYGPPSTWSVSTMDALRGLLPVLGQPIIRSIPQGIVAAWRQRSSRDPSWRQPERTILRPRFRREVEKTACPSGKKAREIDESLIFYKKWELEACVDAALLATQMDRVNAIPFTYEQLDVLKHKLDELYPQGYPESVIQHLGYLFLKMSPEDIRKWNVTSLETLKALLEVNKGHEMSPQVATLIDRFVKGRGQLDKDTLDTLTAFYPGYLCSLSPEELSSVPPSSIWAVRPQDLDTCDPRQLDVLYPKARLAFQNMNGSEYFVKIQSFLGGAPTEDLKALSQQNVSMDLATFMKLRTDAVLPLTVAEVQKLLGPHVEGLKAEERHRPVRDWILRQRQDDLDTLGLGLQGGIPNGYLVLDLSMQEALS

B1: DCBPR2002-4(DBCO-vc-MMAE): DCBPR2002-4Az reacted with DBCO-vc-MMAE; trimannosyl-conjugated ADC, DAR 3.89 (conjugate)
VH: QVQLVQSGAEVKKPGASVKVSCKASGYSFTGYTMNWVRQAPGQGLEWMGLITPYNGASSYNQKFRGRVTMTRDTSISTAYMELSRLRSDDTAVYYCARGGYDGRGFDYWGQGTLVTVSS
VL: EIVLTQSPATLSLSPGERATLSCSASSSVSYMHWYQQKPGQAPRLLIYDTSKLASGIPARFSGSGSGTDFTLTISSLEPEDFAVYYCQQWSKHPLTFGQGTKVEIKR
On to B1, for which, in data set [1], the body weight changes result is “No body weight loss was observed”. In addition, in data set [1] (TGI≥58% considered significant), the “tumor growth / anti-tumor activity” value is reported as “significantly reduced KLM-1 tumor growth from Day 7 to Day 28”. In data set [2], the IC50 came to 101 nM. The body weight changes result in data set [3] (15 mg/kg IV once weekly for 3 weeks) is listed as “No body weight loss was observed”. In data set [3] (30 mg/kg IV once weekly for 3 weeks), the body weight changes result was “No body weight loss was observed”. The “Rmax(RU)” value with mesothelin protein is listed as 55.99 RU. The molecule also yielded a Ka with mesothelin protein (antibody/ADC captured on CM5 chip via anti-human IgG-Fc) of 5.395E+6. In addition, in the data set with mesothelin protein (dissociation rate, antibody/ADC captured on CM5 chip), the “dissociation rate constant (koff)” value amounted to 1.17E−4. Further, in data set [4] (Conjugated antibody), the “AUC(0−last)” value amounted to 2334.505 µg·h/mL, the “AUC(0−∞)” value was found to be 2400.45 µg·h/mL, the C0 came to 80.955 µg/mL and the CL was 2.1 mL/h/kg. In data set [4] (Conjugated antibody), the MRT worked out at 85.6 h, the Vss came to 0.179 L/kg and the t1/2 is 148 ± 8.14 h. In data set [4] (Total antibody), the “AUC(0−last)” value was 4013.185 µg·h/mL, the “AUC(0−∞)” value amounted to 4363.325 µg·h/mL, the C0 was 94.121 µg/mL and the CL was 1.14 mL/h/kg. In data set [4] (Total antibody), this molecule showed an MRT of 160 h, a Vss of 0.183 L/kg and a t1/2 of 194 ± 35.0 h. The “difference between the curve of total antibody and conjugated antibody (stability of the conjugated linker-payload)” value in data set [4] (5 mg/kg, compared with Adcetris) is “closed on DCBPR2002-4(DBCO-vc-MMAE) than that of Adcetris”.
